In the supplement of paper PMC10065799, “High-throughput profiling of sequence recognition by tyrosine kinases and SH2 domains using bacterial peptide display” (eLife, 2023):

Experiments:
AncSZ = experiment: phosphorylation enrichment, bacterial display (enrichment ratio); higher = better substrate or ligand; peptides without Tyr show the background
EPHB1 = EPHB1 (UniProt P54762); experiment: as above
EPHB2 = EPHB2 (UniProt P29323); experiment: as above
FGFR1 = FGFR1 (UniProt P11362); experiment: as above
FGFR3 = FGFR3 (UniProt P22607); experiment: as above
Fer (mouse) = experiment: as above
Fes = Fes (UniProt P07332); experiment: as above
Fyn = Fyn (UniProt P06241); experiment: as above
Hck = Hck (UniProt P08631); experiment: as above
Jak2 = Jak2 (UniProt O60674); experiment: as above
MERTK = MERTK (UniProt Q12866); experiment: as above
c-Abl (mouse) = experiment: as above
c-Src = experiment: as above
Grb2 SH2 = Grb2 SH2 (UniProt P62993); experiment: SH2 binding enrichment of the phosphorylated peptide, bacterial display (enrichment ratio); higher = better substrate or ligand; peptides without Tyr show the background
SHP2-C SH2 = experiment: as above
c-Src SH2 = experiment: as above
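Throughout, for SH2 binding enrichment of the phosphorylated peptide, bacterial display: peptide library displayed on the E. coli surface as eCPX fusions, selected cells deep-sequenced, score is each peptide's frequency after selection divided by its frequency in the input.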
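Throughout, for phosphorylation enrichment, bacterial display: 11-residue human phosphosite peptides and single-mutation variants displayed on the E. coli surface, counted by deep sequencing, each peptide's frequency after selection divided by its frequency in the unselected input library; frequency after pTyr selection over input frequency; kinase dosed for 20-30% of maximal phosphorylation in three min.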

Chain of EPHB2 (P29323 whole entry, looked up): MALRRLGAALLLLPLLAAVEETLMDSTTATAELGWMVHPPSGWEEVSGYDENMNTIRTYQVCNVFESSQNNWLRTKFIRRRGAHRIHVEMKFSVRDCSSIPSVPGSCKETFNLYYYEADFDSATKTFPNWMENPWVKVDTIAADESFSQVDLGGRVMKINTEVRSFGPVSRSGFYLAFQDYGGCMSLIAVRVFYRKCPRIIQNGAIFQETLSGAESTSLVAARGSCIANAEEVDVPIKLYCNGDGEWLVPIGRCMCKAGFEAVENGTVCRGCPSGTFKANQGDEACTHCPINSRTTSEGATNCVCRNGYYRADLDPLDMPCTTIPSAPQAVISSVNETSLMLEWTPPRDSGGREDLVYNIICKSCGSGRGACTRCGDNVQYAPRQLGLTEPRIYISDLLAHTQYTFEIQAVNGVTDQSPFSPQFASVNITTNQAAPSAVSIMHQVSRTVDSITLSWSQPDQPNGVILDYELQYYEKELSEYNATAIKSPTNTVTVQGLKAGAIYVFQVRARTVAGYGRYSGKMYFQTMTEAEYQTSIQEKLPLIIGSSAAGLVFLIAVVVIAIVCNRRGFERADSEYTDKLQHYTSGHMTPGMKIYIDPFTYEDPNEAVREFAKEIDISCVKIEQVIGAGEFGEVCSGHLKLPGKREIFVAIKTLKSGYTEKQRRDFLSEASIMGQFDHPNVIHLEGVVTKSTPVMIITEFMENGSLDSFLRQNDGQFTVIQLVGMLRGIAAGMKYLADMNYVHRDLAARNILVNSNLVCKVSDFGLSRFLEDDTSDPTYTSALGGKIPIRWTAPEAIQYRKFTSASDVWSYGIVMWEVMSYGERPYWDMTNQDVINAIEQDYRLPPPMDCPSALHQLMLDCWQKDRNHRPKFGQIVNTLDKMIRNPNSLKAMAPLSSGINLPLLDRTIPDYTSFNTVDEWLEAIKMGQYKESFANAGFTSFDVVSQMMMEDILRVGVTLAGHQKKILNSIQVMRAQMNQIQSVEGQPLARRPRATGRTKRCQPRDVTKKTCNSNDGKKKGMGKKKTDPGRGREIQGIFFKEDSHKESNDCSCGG
Chain of FGFR1 (P11362 whole entry, looked up): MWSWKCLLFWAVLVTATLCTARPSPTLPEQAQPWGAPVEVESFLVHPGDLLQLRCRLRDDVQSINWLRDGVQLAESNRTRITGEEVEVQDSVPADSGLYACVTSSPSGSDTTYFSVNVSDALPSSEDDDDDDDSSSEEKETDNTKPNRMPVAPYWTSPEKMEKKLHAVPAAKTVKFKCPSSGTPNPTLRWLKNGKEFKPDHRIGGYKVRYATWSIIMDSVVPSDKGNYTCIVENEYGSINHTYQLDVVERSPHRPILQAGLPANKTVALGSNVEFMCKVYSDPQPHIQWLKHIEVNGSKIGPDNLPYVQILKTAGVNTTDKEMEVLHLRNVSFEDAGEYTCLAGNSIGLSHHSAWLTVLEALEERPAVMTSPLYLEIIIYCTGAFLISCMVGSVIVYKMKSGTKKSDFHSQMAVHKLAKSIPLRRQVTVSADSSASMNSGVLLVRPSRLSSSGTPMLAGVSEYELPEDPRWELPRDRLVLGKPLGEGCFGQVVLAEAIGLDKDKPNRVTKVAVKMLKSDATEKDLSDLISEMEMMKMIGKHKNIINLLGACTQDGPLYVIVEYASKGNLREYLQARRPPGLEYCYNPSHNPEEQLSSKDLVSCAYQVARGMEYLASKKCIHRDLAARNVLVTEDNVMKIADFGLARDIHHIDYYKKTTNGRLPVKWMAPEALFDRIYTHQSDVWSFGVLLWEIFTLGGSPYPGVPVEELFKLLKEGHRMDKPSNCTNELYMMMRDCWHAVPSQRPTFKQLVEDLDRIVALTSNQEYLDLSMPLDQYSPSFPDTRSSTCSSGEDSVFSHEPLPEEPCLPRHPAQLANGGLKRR
Chain of Jak2 (O60674 whole entry, looked up): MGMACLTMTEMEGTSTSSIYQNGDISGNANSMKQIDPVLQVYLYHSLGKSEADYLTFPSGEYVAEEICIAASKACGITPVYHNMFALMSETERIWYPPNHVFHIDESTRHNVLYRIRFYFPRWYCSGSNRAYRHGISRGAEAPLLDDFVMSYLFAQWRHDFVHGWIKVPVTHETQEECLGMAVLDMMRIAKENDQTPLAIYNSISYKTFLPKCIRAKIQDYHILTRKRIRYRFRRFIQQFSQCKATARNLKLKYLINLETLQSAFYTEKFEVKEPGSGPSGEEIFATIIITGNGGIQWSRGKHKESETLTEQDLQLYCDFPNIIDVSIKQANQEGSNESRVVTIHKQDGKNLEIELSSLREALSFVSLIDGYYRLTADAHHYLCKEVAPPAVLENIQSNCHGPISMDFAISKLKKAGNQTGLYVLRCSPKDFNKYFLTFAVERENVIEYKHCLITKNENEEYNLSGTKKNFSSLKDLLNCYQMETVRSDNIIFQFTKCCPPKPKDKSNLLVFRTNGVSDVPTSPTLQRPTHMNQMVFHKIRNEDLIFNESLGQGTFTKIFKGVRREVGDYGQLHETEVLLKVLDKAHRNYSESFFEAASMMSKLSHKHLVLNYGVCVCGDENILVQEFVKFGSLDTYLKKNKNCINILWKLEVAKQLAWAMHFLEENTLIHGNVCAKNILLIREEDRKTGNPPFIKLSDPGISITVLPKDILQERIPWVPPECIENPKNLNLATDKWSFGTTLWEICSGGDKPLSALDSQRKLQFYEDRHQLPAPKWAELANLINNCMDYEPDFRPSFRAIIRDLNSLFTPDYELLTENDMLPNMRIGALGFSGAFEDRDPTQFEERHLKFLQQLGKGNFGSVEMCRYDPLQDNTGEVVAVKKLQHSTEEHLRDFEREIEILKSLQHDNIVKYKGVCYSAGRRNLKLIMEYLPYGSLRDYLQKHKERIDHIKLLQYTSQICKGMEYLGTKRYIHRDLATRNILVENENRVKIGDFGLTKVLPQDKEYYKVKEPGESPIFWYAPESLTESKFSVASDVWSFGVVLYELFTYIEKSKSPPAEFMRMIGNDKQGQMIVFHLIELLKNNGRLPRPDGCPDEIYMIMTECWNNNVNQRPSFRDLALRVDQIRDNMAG
Chain of Fyn (P06241 whole entry, looked up): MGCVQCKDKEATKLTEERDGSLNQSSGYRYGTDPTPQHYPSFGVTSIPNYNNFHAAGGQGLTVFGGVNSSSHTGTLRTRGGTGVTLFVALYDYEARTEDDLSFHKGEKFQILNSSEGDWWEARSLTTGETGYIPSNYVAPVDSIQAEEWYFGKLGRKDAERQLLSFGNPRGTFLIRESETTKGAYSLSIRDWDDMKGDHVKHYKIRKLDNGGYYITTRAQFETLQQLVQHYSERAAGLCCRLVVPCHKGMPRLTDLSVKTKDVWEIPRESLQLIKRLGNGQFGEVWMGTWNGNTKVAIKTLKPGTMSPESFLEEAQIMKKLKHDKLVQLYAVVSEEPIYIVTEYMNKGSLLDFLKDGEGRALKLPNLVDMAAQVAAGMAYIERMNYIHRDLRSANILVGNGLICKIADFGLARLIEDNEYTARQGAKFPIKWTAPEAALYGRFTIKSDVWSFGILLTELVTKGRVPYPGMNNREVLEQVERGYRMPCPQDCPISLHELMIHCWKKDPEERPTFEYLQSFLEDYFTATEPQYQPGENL
Chain of MERTK (Q12866 whole entry, looked up): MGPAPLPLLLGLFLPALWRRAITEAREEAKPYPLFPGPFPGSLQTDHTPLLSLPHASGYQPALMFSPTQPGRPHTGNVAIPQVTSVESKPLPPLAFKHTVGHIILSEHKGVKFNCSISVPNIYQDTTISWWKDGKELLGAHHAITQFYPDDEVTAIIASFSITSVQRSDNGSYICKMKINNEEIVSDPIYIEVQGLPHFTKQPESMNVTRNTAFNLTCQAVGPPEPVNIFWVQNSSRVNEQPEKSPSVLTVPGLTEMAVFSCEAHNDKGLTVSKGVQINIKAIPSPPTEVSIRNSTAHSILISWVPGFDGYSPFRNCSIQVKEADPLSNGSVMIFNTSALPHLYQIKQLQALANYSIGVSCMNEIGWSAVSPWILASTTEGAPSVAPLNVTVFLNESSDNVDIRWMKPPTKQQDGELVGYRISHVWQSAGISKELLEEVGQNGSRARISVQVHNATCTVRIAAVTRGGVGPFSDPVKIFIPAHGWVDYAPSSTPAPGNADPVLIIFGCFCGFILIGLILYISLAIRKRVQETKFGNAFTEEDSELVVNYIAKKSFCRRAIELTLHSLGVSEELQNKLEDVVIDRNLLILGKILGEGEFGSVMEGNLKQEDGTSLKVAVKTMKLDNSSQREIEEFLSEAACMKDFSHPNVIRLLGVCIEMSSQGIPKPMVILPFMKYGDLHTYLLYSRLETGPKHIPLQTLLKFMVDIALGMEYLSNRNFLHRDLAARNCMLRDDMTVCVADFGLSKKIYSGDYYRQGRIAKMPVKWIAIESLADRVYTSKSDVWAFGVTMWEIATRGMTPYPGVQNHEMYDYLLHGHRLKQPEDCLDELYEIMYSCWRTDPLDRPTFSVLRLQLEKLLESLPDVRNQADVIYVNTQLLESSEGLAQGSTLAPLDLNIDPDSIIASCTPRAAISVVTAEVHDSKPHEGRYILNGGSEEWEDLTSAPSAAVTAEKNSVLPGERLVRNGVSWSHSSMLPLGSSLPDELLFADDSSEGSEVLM
Chain of Hck (P08631 whole entry, looked up): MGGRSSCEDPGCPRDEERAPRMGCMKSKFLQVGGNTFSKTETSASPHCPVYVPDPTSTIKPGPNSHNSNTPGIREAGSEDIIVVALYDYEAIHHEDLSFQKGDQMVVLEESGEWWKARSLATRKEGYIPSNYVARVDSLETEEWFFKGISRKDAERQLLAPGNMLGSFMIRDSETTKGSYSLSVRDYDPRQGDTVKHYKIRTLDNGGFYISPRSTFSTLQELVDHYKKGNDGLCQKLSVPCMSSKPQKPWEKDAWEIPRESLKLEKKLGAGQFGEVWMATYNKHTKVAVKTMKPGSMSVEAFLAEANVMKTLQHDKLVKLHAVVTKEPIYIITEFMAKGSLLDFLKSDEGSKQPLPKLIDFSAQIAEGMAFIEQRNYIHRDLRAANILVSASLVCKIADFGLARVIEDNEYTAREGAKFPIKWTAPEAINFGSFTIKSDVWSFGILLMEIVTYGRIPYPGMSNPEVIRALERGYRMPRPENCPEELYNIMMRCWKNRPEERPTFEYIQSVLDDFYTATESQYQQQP

Row | Sequence | SH2 binding enrichment (Grb2 SH2) | SH2 binding enrichment (SHP2-C SH2) | SH2 binding enrichment (c-Src SH2) | phosphorylation enrichment (AncSZ) | phosphorylation enrichment (EPHB1) | phosphorylation enrichment (EPHB2) | phosphorylation enrichment (FGFR1) | phosphorylation enrichment (FGFR3) | phosphorylation enrichment (Fer (mouse)) | phosphorylation enrichment (Fes) | phosphorylation enrichment (Fyn) | phosphorylation enrichment (Hck) | phosphorylation enrichment (Jak2) | phosphorylation enrichment (MERTK) | phosphorylation enrichment (c-Abl (mouse)) | phosphorylation enrichment (c-Src)
1 | HFVDEYDQTIE [KRAS_Y32_P34Q] | 0.973 | 0.62 | 0.592 | 2.79 | 1.1 | 1.07 | 0.93 | 0.852 | 0.667 | 2.04 | 0.897 | 0.835 | 2.14 | 0.804 | 1.01 | 0.935
2 | HGEAYYSEVKP [PAK5_Y182] | 0.769 | 0.795 | 2.44 | 2.68 | 2.27 | 1.8 | 3.13 | 1.93 | 11.2 | 1.62 | 1.96 | 3.85 | 1.7 | 11.2 | 1.79 | 2.99
3 | HHIDYYKETTN [FGFR1_Y654_K656E] | 0.985 | 0.996 | 1.47 | 1.13 | 1.03 | 0.814 | 1.09 | 0.935 | 0.893 | 1.39 | 0.646 | 0.799 | 0.979 | 0.866 | 0.878 | 0.997
4 | HICTAYKLVLA [DHCR24_Y190_E191K] | 0.867 | 0.56 | 0.45 | 1.88 | 1.49 | 1.53 | 2.66 | 2.2 | 1.52 | 2.86 | 1.3 | 1.47 | 1.88 | 0.832 | 0.969 | 1.34
5 | HMEAVYIDIAD [PITPNA_Y140_V136M] | 1.23 | 0.847 | 0.696 | 3.91 | 9.76 | 5.08 | 13.6 | 10.2 | 8.49 | 2.85 | 3.86 | 2.85 | 2.26 | 1.43 | 1.06 | 3.62
6 | HNLDYYKETTN [FGFR3_Y648_K650E] | 1.24 | 0.874 | 0.732 | 1.25 | 0.633 | 0.857 | 2.08 | 2.12 | 0.766 | 1.06 | 0.597 | 0.734 | 1.01 | 0.553 | 0.788 | 0.47
7 | HPAGNYSLSSV [ARFGAP3_Y473_Q468H] | 0.804 | 0.79 | 0.603 | 0.49 | 0.706 | 0.58 | 0.562 | 0.458 | 0.619 | 0.666 | 0.409 | 0.553 | 0.672 | 0.625 | 0.867 | 0.425

Continued, in another order:

Row | SH2 binding enrichment (Grb2 SH2) | SH2 binding enrichment (SHP2-C SH2) | SH2 binding enrichment (c-Src SH2) | Sequence | phosphorylation enrichment (AncSZ) | phosphorylation enrichment (EPHB1) | phosphorylation enrichment (EPHB2) | phosphorylation enrichment (FGFR1) | phosphorylation enrichment (FGFR3) | phosphorylation enrichment (Fer (mouse)) | phosphorylation enrichment (Fes) | phosphorylation enrichment (Fyn) | phosphorylation enrichment (Hck) | phosphorylation enrichment (Jak2) | phosphorylation enrichment (MERTK) | phosphorylation enrichment (c-Abl (mouse)) | phosphorylation enrichment (c-Src)
8 | 0.755 | 0.7 | 0.362 | HAEERYGKELV [PSTPIP1_Y53_Q48H] | 1.26 | 0.881 | 0.806 | 1.09 | 1.02 | 0.732 | 1.26 | 0.614 | 1.02 | 1.06 | 0.382 | 0.688 | 0.569
9 | 0.895 | 1.27 | 0.531 | HAVFVYDICHV [TWNK_Y508_YF] | 1.88 | 1.49 | 1.36 | 0.631 | 1.05 | 3.38 | 2.02 | 4.27 | 2.8 | 1.65 | 2.62 | 1.47 | 4.61
10 | 12.4 | 1.03 | 6.64 | HEVHIYENSGA [ARPC1B_Y35_K37N] | 1.44 | 1.38 | 1.28 | 0.703 | 0.892 | 1.26 | 2.27 | 1.04 | 1.62 | 1.31 | 0.826 | 1.32 | 0.865
11 | 0.456 | 0.43 | 0.213 | HIAKGYRRDNP [HARS1_Y156_V155G] | 0.731 | 0.363 | 0.429 | 0.33 | 0.326 | 0.438 | 0.539 | 0.427 | 0.572 | 0.409 | 0.399 | 0.543 | 0.451
12 | 0.957 | 0.925 | 0.459 | HISGVYKLPPD [ANGPTL7_Y145_R140H] | 1.79 | 0.556 | 0.6 | 0.585 | 0.67 | 0.618 | 1.33 | 3.26 | 0.718 | 1 | 0.725 | 0.697 | 2.3
13 | 0.902 | 0.907 | 0.985 | HKANEYYPVVL [ADAMTS18_Y764] | 2.86 | 1.47 | 1.45 | 23.2 | 15.7 | 2.6 | 1.22 | 0.956 | 1.95 | 9.18 | 1.13 | 2.49 | 1.65
14 | 0.931 | 0.72 | 0.866 | HKNNNYEPSLF [BRCA2_Y57_N60S] | 1.13 | 0.689 | 0.766 | 0.793 | 0.891 | 0.791 | 1 | 0.652 | 0.563 | 0.897 | 0.654 | 0.659 | 0.658
15 | 1.14 | 1 | 0.431 | HNGVSYYINLC [IGF2R_Y2024] | 1.43 | 0.805 | 0.541 | 0.605 | 1.1 | 0.577 | 1.5 | 0.581 | 0.597 | 1.35 | 0.513 | 1.15 | 0.419
16 | 0.738 | 0.683 | 0.479 | HNLNYYKKTTN [FGFR3_Y648_D646N] | 0.791 | 0.337 | 0.361 | 0.468 | 0.531 | 0.461 | 0.507 | 0.491 | 0.258 | 0.648 | 0.479 | 0.554 | 0.429
17 | 0.856 | 0.52 | 0.802 | HRDSSYFWEIE [RAF1_Y340_Q335H_YF] | 1.34 | 0.59 | 0.629 | 1.02 | 0.984 | 0.497 | 1.8 | 0.579 | 0.638 | 2.02 | 0.628 | 1.13 | 0.888
